Assay results published in US20220372138A1 (IOMX THERAPEUTICS, published 2022).
Where two headings read alike, the source gives them in different places. One block for each binder: values may come before it.

Tests used:
[1] = target: T1, murine IGSF11 expressed on cells (mouse, UniProt P0C673 23-428); assay: IgG FACS CT26-IGSF11
T1 construct: MC38-IGSF11, CT26-IGSF11, MC38-wt (naturally expresses murine IGSF11)
T1 sequence: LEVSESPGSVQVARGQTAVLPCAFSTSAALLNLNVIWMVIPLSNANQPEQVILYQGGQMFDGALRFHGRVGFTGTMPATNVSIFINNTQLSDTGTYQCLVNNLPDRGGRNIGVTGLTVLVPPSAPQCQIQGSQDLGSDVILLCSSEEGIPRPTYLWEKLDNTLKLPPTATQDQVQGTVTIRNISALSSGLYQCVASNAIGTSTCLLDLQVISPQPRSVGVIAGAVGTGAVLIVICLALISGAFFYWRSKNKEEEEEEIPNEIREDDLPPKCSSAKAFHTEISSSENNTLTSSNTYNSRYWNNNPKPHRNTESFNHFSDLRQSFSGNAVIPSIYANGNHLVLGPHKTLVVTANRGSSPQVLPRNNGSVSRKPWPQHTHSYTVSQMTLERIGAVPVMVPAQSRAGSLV
Source text: (§1) Unbound antibodies were removed by washing the cells three time with FACS buffer. Bound antibodies were detected with a mouse anti-human IgG antibody conjugated with AlexaFluor647.

[2] = target: T2, human IGSF11 (VSIG3) expressed on cells (human, UniProt Q5DX21 23-431); assay: IgG FACS, human IGSF11 cell lines of Table 13.4; human IGSF11 cell lines (Colo741, MDA-MB-231-IGSF11)
T2 sequence: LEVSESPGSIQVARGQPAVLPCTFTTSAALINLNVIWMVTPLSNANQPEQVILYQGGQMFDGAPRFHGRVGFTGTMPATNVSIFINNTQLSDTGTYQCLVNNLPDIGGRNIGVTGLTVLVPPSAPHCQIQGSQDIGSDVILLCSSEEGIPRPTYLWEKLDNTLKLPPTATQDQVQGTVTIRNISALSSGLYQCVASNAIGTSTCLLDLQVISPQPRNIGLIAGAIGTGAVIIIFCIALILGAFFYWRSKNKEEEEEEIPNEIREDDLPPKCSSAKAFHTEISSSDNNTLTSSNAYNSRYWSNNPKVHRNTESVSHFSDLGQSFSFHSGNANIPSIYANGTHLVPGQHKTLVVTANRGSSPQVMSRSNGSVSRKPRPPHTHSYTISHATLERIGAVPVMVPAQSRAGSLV

[3] = target: T1, murine IGSF11 expressed on cells; assay: IgG FACS MC38-IGSF11
Source text: as §1

[4] = target: T2, human IGSF11 (VSIG3) expressed on cells; assay: IgG FACS MDA-MB-231-IGSF11
Source text: as §1

[5] = target: T3, full-length ECD of human IGSF11 fused to murine Fc (human, UniProt Q5DX21 23-241); assay: IgG ELISA
T3 construct: also called Fc-fusion IGSF11 ECD; not shown: murine Fc
T3 sequence: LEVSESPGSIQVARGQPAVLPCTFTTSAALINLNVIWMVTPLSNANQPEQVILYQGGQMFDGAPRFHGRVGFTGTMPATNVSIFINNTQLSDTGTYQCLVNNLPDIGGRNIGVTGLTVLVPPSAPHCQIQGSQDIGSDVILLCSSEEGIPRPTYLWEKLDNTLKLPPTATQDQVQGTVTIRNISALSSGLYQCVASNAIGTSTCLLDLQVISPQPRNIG

[6] = target: T4, IgC2 domain of human IGSF11 fused to murine IgG2a Fc (human, UniProt Q5DX21 137-241); assay: IgG ELISA
T4 construct: not shown: murine IgG2a Fc-region
T4 sequence: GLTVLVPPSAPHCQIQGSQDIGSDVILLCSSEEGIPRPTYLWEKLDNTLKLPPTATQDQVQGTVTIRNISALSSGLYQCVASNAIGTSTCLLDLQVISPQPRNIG

[7] = target: T1, murine IGSF11 expressed on cells; assay: IgG FACS, murine IGSF11 cell lines of Table 13.4; murine IGSF11 cell lines (MC38-IGSF11, MC38-wt)
[8] = target: T5, extracellular domain (ECD) of human IGSF11 (VSIG3), recombinant (human, UniProt Q5DX21 23-241); assay: BLI apparent affinity, IgG on AHC sensor, IGSF11 ECD 100 nM
T5 construct: biotinylated where captured on streptavidin; tags of the reagent not always stated; also called IGSF11 (ECD domain); ECD-IGSF11
T5 sequence: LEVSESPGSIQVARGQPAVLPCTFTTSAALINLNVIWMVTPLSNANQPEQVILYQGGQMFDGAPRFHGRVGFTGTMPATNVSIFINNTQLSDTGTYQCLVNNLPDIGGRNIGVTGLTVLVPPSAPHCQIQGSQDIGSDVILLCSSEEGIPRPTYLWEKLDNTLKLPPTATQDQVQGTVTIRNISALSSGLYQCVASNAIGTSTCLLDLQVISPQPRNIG
Source text: Briefly, various APBs were loaded on an optical biosensor via a commercially available Capture System (AHC sensors, ForteBio).

[9] = target: T2, human IGSF11 (VSIG3) expressed on cells; assay: FACS, M579-A2-luc cells with IGSF11 siRNA (KD, knock-down control)
[10] = target: T3, full-length ECD of human IGSF11 fused …; assay: ELISA: Fc-fusion IGSF11 ECD coated, IgG dilution series, anti-human IgG-HRP
Procedure: (§2) Binding of IgG antibodies to each of the full-length ECD of IGSF11, to the IgV domain of IGSF11 and to the IgC2 domain of IGSF11, was tested in the ELISA assay as follows: briefly, recombinant domains of Fc-fusion IGSF11 proteins were coated at 2 ug/mL on a 384-well Maxisorp plate. The surface was blocked with 2% (w/v) skim milk powder in PBST. […] After removing all unbound antibodies by 3 wash cycles with PBST, bound IgG ABPs were detected with a goat anti-human IgG antibody conjugated with horseradish peroxidase. After three wash cycles with PBST the ELISA was developed with TMB substrate.

[11] = target: T6, human IGSF11 (VSIG3) ECD, His-tagged (human, UniProt Q5DX21 23-241); assay: ELISA: IGSF11-HIS coated, IgG1 dilution series, anti-human antibody-HRP, TMB
T6 construct: in part bought (SinoBiological 13094-H08H); also called HIS-IGSF11; IGSF11-HIS; not shown: His tag
T6 sequence: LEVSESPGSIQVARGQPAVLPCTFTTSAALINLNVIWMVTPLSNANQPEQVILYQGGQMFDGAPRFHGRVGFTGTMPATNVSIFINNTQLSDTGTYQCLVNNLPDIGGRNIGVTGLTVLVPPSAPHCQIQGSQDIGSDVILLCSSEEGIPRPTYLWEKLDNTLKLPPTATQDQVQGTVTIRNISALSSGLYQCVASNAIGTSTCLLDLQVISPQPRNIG

[12] = target: T2, human IGSF11 (VSIG3) expressed on cells; assay: FACS, DMS 273 cells with IGSF11 siRNA (KD, knock-down control)
[13] = target: T2, human IGSF11 (VSIG3) expressed on cells; assay: FACS, DMS 273 cells with scrambled control siRNA (SC)
[14] = target: T2, human IGSF11 (VSIG3) expressed on cells; assay: IgG1 FACS HEK-OE
[15] = target: T7, IgV domain of human IGSF11 fused to murine IgG2a Fc (human, UniProt Q5DX21 23-143); assay: BLI: IgV domain-mFc captured on the sensor, IgG1 in solution, concentrations not given [Cont.) D]
T7 construct: not shown: murine IgG2a Fc-region
T7 sequence: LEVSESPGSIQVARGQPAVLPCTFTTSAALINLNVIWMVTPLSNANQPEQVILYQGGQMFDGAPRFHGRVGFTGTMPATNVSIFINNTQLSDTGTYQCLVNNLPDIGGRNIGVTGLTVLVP

[16] = target: T6, human IGSF11 (VSIG3) ECD, His-tagged; assay: blocking ELISA: VSIR-Fc immobilised, IgG dilution series pre-incubated with 200 nM IGSF11 ECD-His, bound IGSF11 detected with anti-His-HRP
Procedure: All binding steps were for 1 hour at room temperature, and all washing steps were three times washing with PBS/Tween (0.05%).

[17] = target: T2, human IGSF11 (VSIG3) expressed on cells; assay: FACS, M579-A2-luc cells with scrambled control siRNA (SC)
[18] = target: T6, human IGSF11 (VSIG3) ECD, His-tagged; assay: IgG1 ELISA EC50 <0.02 nM
[19] = target: T5, extracellular domain (ECD) of human …; assay: SPR
[20] = target: T3, full-length ECD of human IGSF11 fused …; assay: IgG ELISA; remark: listed apart in the source
Procedure: as §2

[21] = target: T4, IgC2 domain of human IGSF11 fused to …; assay: IgG ELISA; remark: listed apart in the source
Procedure: as §2

[22] = target: T4, IgC2 domain of human IGSF11 fused to …; assay: ELISA: IgC2 domain-mFc fusion coated, IgG dilution series, anti-human IgG-HRP
Procedure: as §2

[23] = target: T2, human IGSF11 (VSIG3) expressed on cells; assay: IgG1 FACS DMS 273
[24] = target: T5, extracellular domain (ECD) of human …; assay: BLI
[25] = target: T1, murine IGSF11 expressed on cells; assay: IgG FACS MC38-wt; MC38-wt cells (murine line, not transfected)
Source text: as §1

[26] = target: T5, extracellular domain (ECD) of human …; assay: BLI: biotinylated IGSF11 on streptavidin sensor, ABP bound for 600 s, then VISTA.COMP; VISTA response normalised to that without antibody
Source text: Briefly, biotinylated IGSF11 was loaded on an optical biosensor via a streptavidin surface. The IGSF11-loaded biosensor was dipped into the samples with different concentrations of anti-IGSF11 ABP, and ABPs were bound for 600s.

[27] = target: T2, human IGSF11 (VSIG3) expressed on cells; assay: IgG FACS Colo741
Source text: as §1

[28] = target: T6, human IGSF11 (VSIG3) ECD, His-tagged; assay: IgG1 ELISA EC50 0.02-0.05 nM
[29] = target: T3, full-length ECD of human IGSF11 fused …; assay: ELISA: Fc-fusion IGSF11 ECD coated, IgG dilution series, anti-human IgG-HRP; remark: listed apart in the source
Procedure: as §2

[30] = target: T7, IgV domain of human IGSF11 fused to …; assay: IgG ELISA
Procedure: as §2

[31] = target: T4, IgC2 domain of human IGSF11 fused to …; assay: BLI: IgC2 domain-mFc captured on the sensor, IgG1 in solution, concentrations not given [Cont.) D]

- EC50 [1]: < 20 nM
- EC50 [2]: ~2 nM
- EC50 [3]: < 20 nM
- EC50 [4]: < 10 nM
- EC50 [5]: < 1 nM
- EC50 [6]: < 1 nM
- EC50 [7]: ~2 nM
- Kd [8]: < 15 nM
B1: C-005 (IgG1 format) (antibody, V domains shown)
VH: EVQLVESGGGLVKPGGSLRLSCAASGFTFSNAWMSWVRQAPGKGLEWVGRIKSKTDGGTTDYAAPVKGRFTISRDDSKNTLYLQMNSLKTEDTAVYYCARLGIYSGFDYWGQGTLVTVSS
VL: SYELTQPPSVSVSPGQTASITCSGDKLGDKYASWYQQKPGQSPVLVIYQDSKRPSGIPERFSGSNSGNTATLTISGTQAEDEADYYCHSYTGKPSQVVFGGGTKLTVL

- % binding (FACS heat-map) [9]: 2.59%
- EC50 (read off the curve) [10]: ~0.5 nM
- EC50 (read off the curve) [11]: ~0.01 nM
- % binding (FACS heat-map) [12]: 5.72%
- % binding (FACS heat-map) [13]: 81.1%
- EC50 [14]: 10 to 50 nM
- binding result [15]: no binding
- IC50 (read off the curve) [16]: ~4 nM
- % binding (FACS heat-map) [17]: 75.3%
- EC50 [18]: < 0.02 nM
- Kd [19]: 250 to 500 nM
- EC50 [20]: < 1 nM
- EC50 [21]: < 1 nM
- EC50 (read off the curve) [22]: ~0.4 nM
- EC50 [23]: > 50 nM
- Kd [24]: 1 to 10 nM
- Kd [8]: < 15 nM
B2: A-006 (IgG1 format) (antibody, V domains shown)
VH: EVQLVESGGGLIQPGGSLRLSCAASGFTVSSNYMSWVRQAPGKGLEWVSVIYSGGSTYYADSVKGRFTISRDNSKNTLYLQMNSLRAEDTAVYYCARGNPYYYGDLQVNFDYWGQGTLVTVSS
VL: QAVVTQEPSLTVSPGGTVTLTCASSTGAVTSGYYPNWFQQKPGQAPRPLIYSTSNKHSWTPARFSGSLLGGKAALTLSGVQPDDEAEYYCLLYYGGDWVFGGGTKLTVL
notes: human IgG1 format; also called A-006-like ABP

- EC50 [25]: < 0.5 nM
- IC50 (read off the curve) [26]: ~0.7 nM
- EC50 [27]: < 0.5 nM
B3: D-114 (IgG format) (antibody, V domains shown)
VH: EVQLLESGGGLVQPGGSLRLSCAASGFTFQFSALSWVRQAPGKGLEWVSAISYGGGSKYYADSVKGRFTISRDNSKNTLYLQMNSLRAEDTAVYYCARDSRDAYGVAFDLWGQGTMVTVSS
VL: ASVLTQPPSVSAAPGQKVTISCSGSSSNIGNNYVSWYQQLPGTAPKLLIYDNNKRPSGIPDRFSGSKSGTSATLGITGLQAEDEADYYCLSYKLSPGAYVFGGGTKLTVL

- EC50 [28]: 0.02 to 0.05 nM
- EC50 (read off the curve) [29]: ~0.4 nM
- Kd [19]: > 500 nM
- EC50 [20]: < 1 nM
- EC50 [30]: < 1 nM
- EC50 [23]: < 10 nM
- binding result [31]: no binding
B4: A-024 (IgG1 format) (antibody, V domains shown)
VH: QMQLVQSGAEVKKPGSSVKVSCKASGGTFSSYAISWVRQAPGQGLEWMGWISAYNGNTNYAQKLQGRVTMTTDTSTSTAYMELRSLRSDDTAVYYCASLGSYGYTGAFDIWGQGTMATVSS
VL: QSALTQPASVSGSPGQSITISCTGTSSDVGGYNYVSWYQQHPGKAPKLMIYEVSNRPSGVSNRFSGSKSGNTASLTISGLQAEDEADYYCSSYTSSSTLVVFGGGTKLTVL
notes: also called A-024-like ABP
